Our source for the Kd values is paper PMC5913336, “True equilibrium measurement of transcription factor-DNA binding affinities using automated polarization microscopy”.

B1: Bcd competitor 11 (T4G) (dsDNA)
DNA 1: TCGACGGGAATCCCTA
DNA 2: TAGGGATTCCGGTCGA
B2: Bcd consensus CGGTAATCCCT (dsDNA)
DNA 1: TCGACGGTAATCCCTA
DNA 2: TAGGGATTACCGTCGA
B3: Bcd competitor 8 (G3T) (dsDNA)
DNA 1: TCGACGTTAATCCCTA
DNA 2: TAGGGATTAAGGTCGA
B4: Bcd EMSA 16-mer (dsDNA)
DNA 1: TCGACCGTAATCCCTA
DNA 2: TAGGGATTACGGTCGA
B5: Bcd competitor 10 (T4C) (dsDNA)
DNA 1: TCGACGGCAATCCCTA
DNA 2: TAGGGATTGCGGTCGA
B6: Bcd oligo 6 (dsDNA)
DNA 1: TCGACAGTAATCCCTA
DNA 2: TAGGGATTACTGTCGA
B7: Bcd oligo 5 (dsDNA)
DNA 1: TCGACTGTAATCCCTA
DNA 2: TAGGGATTACAGTCGA
B8: Bcd consensus (dsDNA)
DNA 1: TCGACGGTAATCCCTA
DNA 2: TAGGGATTACCGTCGA
B9: Bcd oligo 11 (dsDNA)
DNA 1: TCGACGGGAATCCCTA
DNA 2: TAGGGATTCCCGTCGA
B10: Bcd oligo 25 (dsDNA)
DNA 1: TCGACGGTAATCGCTA
DNA 2: TAGCGATTACCGTCGA
B11: Bcd oligo 33 (dsDNA)
DNA 1: TCGACGGTAATCCCAA
DNA 2: TTGGGATTACCGTCGA
B12: Bcd oligo 1 (dsDNA)
DNA 1: TCGAGGGTAATCCCTA
DNA 2: TAGGGATTACCCTCGA
B13: Bcd oligo 13 (dsDNA)
DNA 1: TCGACGGTCATCCCTA
DNA 2: TAGGGATGACCGTCGA
B14: Bcd oligo 8 (dsDNA)
DNA 1: TCGACGTTAATCCCTA
DNA 2: TAGGGATTAACGTCGA
B15: Bcd oligo 10 (dsDNA)
DNA 1: TCGACGGCAATCCCTA
DNA 2: TAGGGATTGCCGTCGA
B16: Bcd oligo 26 (dsDNA)
DNA 1: TCGACGGTAATCTCTA
DNA 2: TAGAGATTACCGTCGA
B17: Bcd oligo 15 (dsDNA)
DNA 1: TCGACGGTTATCCCTA
DNA 2: TAGGGATAACCGTCGA
B18: Bcd oligo 3 (dsDNA)
DNA 1: TCGAAGGTAATCCCTA
DNA 2: TAGGGATTACCTTCGA
B19: Bcd oligo 28 (dsDNA)
DNA 1: TCGACGGTAATCCGTA
DNA 2: TACGGATTACCGTCGA
B20: Bcd oligo 29 (dsDNA)
DNA 1: TCGACGGTAATCCTTA
DNA 2: TAAGGATTACCGTCGA
B21: Bcd oligo 16 (dsDNA)
DNA 1: TCGACGGTACTCCCTA
DNA 2: TAGGGAGTACCGTCGA
B22: Bcd oligo 22 (dsDNA)
DNA 1: TCGACGGTAATGCCTA
DNA 2: TAGGCATTACCGTCGA
B23: Bcd oligo 27 (dsDNA)
DNA 1: TCGACGGTAATCACTA
DNA 2: TAGTGATTACCGTCGA
B24: Bcd oligo 30 (dsDNA)
DNA 1: TCGACGGTAATCCATA
DNA 2: TATGGATTACCGTCGA
B25: Bcd oligo 12 (dsDNA)
DNA 1: TCGACGGAAATCCCTA
DNA 2: TAGGGATTTCCGTCGA
B26: Bcd oligo 2 (dsDNA)
DNA 1: TCGATGGTAATCCCTA
DNA 2: TAGGGATTACCATCGA
B27: Bcd oligo 19 (dsDNA)
DNA 1: TCGACGGTAACCCCTA
DNA 2: TAGGGGTTACCGTCGA
B28: Bcd oligo 7 (dsDNA)
DNA 1: TCGACGCTAATCCCTA
DNA 2: TAGGGATTAGCGTCGA
B29: Bcd oligo 31 (dsDNA)
DNA 1: TCGACGGTAATCCCCA
DNA 2: TGGGGATTACCGTCGA
B30: Bcd oligo 9 (dsDNA)
DNA 1: TCGACGATAATCCCTA
DNA 2: TAGGGATTATCGTCGA
B31: Bcd oligo 14 (dsDNA)
DNA 1: TCGACGGTGATCCCTA
DNA 2: TAGGGATCACCGTCGA
B32: Bcd oligo 17 (dsDNA)
DNA 1: TCGACGGTAGTCCCTA
DNA 2: TAGGGACTACCGTCGA
B33: Bcd oligo 18 (dsDNA)
DNA 1: TCGACGGTATTCCCTA
DNA 2: TAGGGAATACCGTCGA
B34: Bcd oligo 4 (dsDNA)
DNA 1: TCGACCGTAATCCCTA
DNA 2: TAGGGATTACGGTCGA
B35: Bcd oligo 20 (dsDNA)
DNA 1: TCGACGGTAAGCCCTA
DNA 2: TAGGGCTTACCGTCGA
B36: Bcd oligo 32 (dsDNA)
DNA 1: TCGACGGTAATCCCGA
DNA 2: TCGGGATTACCGTCGA
B37: Bcd oligo 21 (dsDNA)
DNA 1: TCGACGGTAAACCCTA
DNA 2: TAGGGTTTACCGTCGA
B38: Bcd oligo 23 (dsDNA)
DNA 1: TCGACGGTAATTCCTA
DNA 2: TAGGAATTACCGTCGA
B39: Bcd oligo 24 (dsDNA)
DNA 1: TCGACGGTAATACCTA
DNA 2: TAGGTATTACCGTCGA
B40: Bcd competitor 9 (G3A) (dsDNA)
DNA 1: TCGACGATAATCCCTA
DNA 2: TAGGGATTATGGTCGA

For one data set, the target named is T1, Bicoid DBD-GST (Bcd) (UniProt P09081 83-170).
T1 sequence: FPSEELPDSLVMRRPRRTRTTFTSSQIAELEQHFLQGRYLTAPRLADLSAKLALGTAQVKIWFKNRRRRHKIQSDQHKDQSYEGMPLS
The data set is described as follows: competitive fluorescence anisotropy (HiP-FA); mean of replicates 20.981, 21.8595; HiP-FA: 33 mM phosphate pH 7.0, 90 mM NaCl, 0.01% Tween 20, 0.1 mM DTT, 0.5% agarose; conventional titration and EMSA: 20 mM Tris-acetate pH 7.0, 50 nM (sic) NaCl, 0.01% Tween-20, 0.1 mM DTT. The settings on record: protein: recombinant; tags: N-terminal GST; blunt, G:G mismatch at position 6. A general note: In EMSA bound probe runs differently from free probe, usually more slowly.
A word on the Kd: it is the constant that tells how readily two partners part at equilibrium. For B1, the Kd was determined as 21.4 nM.

A further data set has as its target T1, Bicoid DBD-GST (Bcd). The data set is described as follows: competitive fluorescence anisotropy (HiP-FA); HiP-FA: 33 mM phosphate pH 7.0, 90 mM NaCl, 0.01% Tween 20, 0.1 mM DTT, 0.5% agarose; conventional titration and EMSA: 20 mM Tris-acetate pH 7.0, 50 nM (sic) NaCl, 0.01% Tween-20, 0.1 mM DTT. The settings on record: protein: recombinant; tags: N-terminal GST; blunt.
For the molecule B2, the Kd was found to be 2.2 nM.

The next data set has as its system Ttk-F DBD-GST. The data set is described as follows: competitive fluorescence anisotropy (HiP-FA). To be noted: HiP-FA: 33 mM phosphate pH 7.0, 90 mM NaCl, 0.01% Tween 20, 0.1 mM DTT, 0.5% agarose; conventional titration and EMSA: 20 mM Tris-acetate pH 7.0, 50 nM ….
The molecule Ttk-F consensus oligo yielded a Kd of 48 nM.

The next data set relates to Giant DBD-GST (Gt). The data set is described as follows: competitive fluorescence anisotropy (HiP-FA). To be noted: HiP-FA: 33 mM phosphate pH 7.0, 90 mM NaCl, 0.01% Tween 20, 0.1 mM DTT, 0.5% agarose; conventional titration and EMSA: 20 mM Tris-acetate pH 7.0, 50 nM ….
Take Gt consensus oligo: the Kd came to 0.9 nM.

In another data set the target is T1, Bicoid DBD-GST (Bcd). The data set is described as follows: competitive fluorescence anisotropy (HiP-FA); mean of replicates 2.83, 2.8405; HiP-FA: 33 mM phosphate pH 7.0, 90 mM NaCl, 0.01% Tween 20, 0.1 mM DTT, 0.5% agarose; conventional titration and EMSA: 20 mM Tris-acetate pH 7.0, 50 nM (sic) NaCl, 0.01% Tween-20, 0.1 mM DTT. To be noted: protein: recombinant; tags: N-terminal GST; blunt, G:G mismatch at position 6.
As to B3, the Kd was determined as 2.83 nM.

Another data set concerns Caudal DBD-GST (Cad). Description: competitive fluorescence anisotropy (conventional titration). The settings on record: HiP-FA: 33 mM phosphate pH 7.0, 90 mM NaCl, 0.01% Tween 20, 0.1 mM DTT, 0.5% agarose; conventional titration and EMSA: 20 mM Tris-acetate pH 7.0, 50 nM ….
As to Cad consensus oligo, the dissociation constant (Kd) is 0.05 nM.

The target in another data set is T1, Bicoid DBD-GST (Bcd). Description: EMSA; direct titration; HiP-FA: 33 mM phosphate pH 7.0, 90 mM NaCl, 0.01% Tween 20, 0.1 mM DTT, 0.5% agarose; conventional titration and EMSA: 20 mM Tris-acetate pH 7.0, 50 nM (sic) NaCl, 0.01% Tween-20, 0.1 mM DTT. The settings on record: protein: recombinant; tags: N-terminal GST; label: Cy3; blunt.
As to B4, the Kd is 1.8 ± 0.2 nM.

Another data set addresses T1, Bicoid DBD-GST (Bcd). Description: competitive fluorescence anisotropy (HiP-FA); mean of replicates 18.854, 22.285; HiP-FA: 33 mM phosphate pH 7.0, 90 mM NaCl, 0.01% Tween 20, 0.1 mM DTT, 0.5% agarose; conventional titration and EMSA: 20 mM Tris-acetate pH 7.0, 50 nM (sic) NaCl, 0.01% Tween-20, 0.1 mM DTT. To be noted: protein: recombinant; tags: N-terminal GST; blunt, G:G mismatch at position 6.
On to B5, for which the Kd amounted to 20.6 nM.

Another data set concerns the target T2, Bcd homeodomain (Drosophila melanogaster, UniProt P09081-2 77-166).
T2 sequence: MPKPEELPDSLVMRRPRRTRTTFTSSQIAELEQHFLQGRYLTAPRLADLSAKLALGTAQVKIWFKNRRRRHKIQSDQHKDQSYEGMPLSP
Description: FP; 33 mM phosphate pH 7.0, 90 mM NaCl, 0.01% Tween 20, 0.1 mM DTT, 0.5% agarose; room temperature. The settings on record: tags: N-GST (pGEX-6P-1, kept).
In turn, B6 displayed a Kd of 5.86 nM.

As for B7, the Kd is 6.66 nM.

B8 had a Kd of 2.2 nM.

The same data set, now with this note: tags: N-GST (pGEX-6P-1, kept); printed reverse strand differs at base 6 of strand 1 (G / C); complement of the forward strand used.
Consider B9, for which the equilibrium dissociation constant (Kd) worked out at 21.4 nM.

Molecule B10 had a Kd of 14.1 nM. The same measure, in the same setting: for B11 the value was 4.71 nM. Still for that read-out and setting: as for B12, the figure is 2.7 nM; as for B13, 64.3 nM. Still for that read-out and setting: for B14 the value was 2.83 nM. Take B15: the Kd was 20.6 nM. Consider B16, for which binding was characterised by a dissociation constant (Kd) of 7.79 nM. The molecule B17 showed a Kd of 29.4 nM.

Molecule B18 displayed a Kd of 3.76 nM. Molecule B19 returned a Kd of 3.67 nM.

B20 registered a Kd of 4.03 nM. In turn, B21 came in with a Kd of 146 nM. Turning to B22, the Kd is 92.1 nM.

In turn, B23 came in with a Kd of 12.7 nM. Still for that read-out and setting: for B24 the value was 5.18 nM; for B25, 12.9 nM; for B26, 2.66 nM. For B27, the Kd turned out to be 94.1 nM. Still for that read-out and setting: as for B28, the figure is 2.79 nM; as for B29, 3.8 nM. B30 came in with a Kd of 3.8 nM. In turn, B31 had a Kd of 8.98 nM. Still for that read-out and setting: as for B32, the figure is 45.8 nM; as for B33, 128 nM; as for B34, 5.02 nM. On the same count and under the same terms, as for B35, the figure is 18.8 nM; as for B36, 5.08 nM; as for B37, 48.8 nM.

On to B38, for which the Kd stood at 27.2 nM.

In turn, B39 returned a Kd of 47.8 nM.

Another data set addresses T1, Bicoid DBD-GST (Bcd). The data set is described as follows: competitive fluorescence anisotropy (HiP-FA); mean of replicates 3.766, 3.8365; HiP-FA: 33 mM phosphate pH 7.0, 90 mM NaCl, 0.01% Tween 20, 0.1 mM DTT, 0.5% agarose; conventional titration and EMSA: 20 mM Tris-acetate pH 7.0, 50 nM (sic) NaCl, 0.01% Tween-20, 0.1 mM DTT. To be noted: protein: recombinant; tags: N-terminal GST; blunt, G:G mismatch at position 6.
Consider B40, for which the Kd worked out at 3.8 nM.
